How the values were obtained:
[1] = target: … (SEQ ID NO: 823), state with N-terminal leucine (…); assay: single-molecule on-chip sequencing with PS691, PS610 and PS961
[2] = target: RLp… (SEQ ID NO: 824), state with N-terminal leucine (Lp…); assay: as above

RS mean PD [1]: 2.45 s
RS mean PD [2]: 3.4 s
B1: PS961 (designed binder)
chain: MPTAASATESAIEDTPAPARPEVDGRTKPKRQPRYHVVLWDDDDHTYQYVVVMLRSLFGHPPSRGYRMAKEMDTQGRVIVLTTTREHAELKRDQIHAFGRDRLLARSKGSMKASIEAEE

— patent publication US20230213527A1, “COMPOSITIONS AND METHODS FOR POLYPEPTIDE ANALYSIS” (Quantum-Si Incorporated, priority 2021, published 2023)
